Source: patent US20220267438A1 (Janssen / Centocor, published 2022)
Read-outs that look alike come from different tables or passages of the source.

Legend:
[1] = target: T1, human GPRC5D (G-protein coupled receptor family C group 5 member D) on cells (human, UniProt Q9NZD1 1-345); experiment: cell binding, H929 and MM.1R cells
T1 construct: Target on H929 or MM.1R BCMA knockout cells, K562 cells expressing human GPRC5D and HEK293 cells of the cell microarray

[2] = target: T1, human GPRC5D (G-protein coupled …); experiment: cell binding, H929 and MM.1R cells; lower end of the range over H929 and MM.1R cells
[3] = target: T2, cynomolgus monkey CD3 on peripheral blood mononuclear cells (cynomolgus monkey, UniProt Q95LI5 22-198); experiment: flow cytometry, cynomolgus monkey PBMCs
T2 construct: whole, on cells; also called cyno CD3
Procedure: The CD3-binding arm (i.e., CD3B376) binds to cynomolgus monkey CD3. Briefly, binding was measured by flow cytometry after incubating human and cynomolgus monkey peripheral blood mononuclear cells (PBMCs) with GCDB381 (i.e., CD3B376 Fab in bivalent IgG1-AAS antibody), CD3B891 (i.e., CD3B376×Null, IgG1-AAS bispecific antibody), or null control.

[4] = target: T3, human CD3 (CD3ε of the TCR/CD3 complex) on primary human pan T cells (human, UniProt P07766 23-207); experiment: flow cytometry on T cells of donor D203727, with curve extrapolation
T3 construct: whole, on cells; On T cells CD3ε stands in the whole TCR/CD3 complex
Procedure: (§1) Flow cytometry was used to evaluate the CD3 arm (i.e., CD3B376) binding of BGCB491 to CD3⁺ pan T cells from 7 different healthy human. Cell-based EC₅₀ for CD3B376 could not be determined due to lack of saturation kinetics at 1 hour (FIG. 26). Bioinformatic extrapolation was performed (FIG. 27) using the CD3B376×Null control antibody (i.e., GCDB381) molecule, which saturates within 2 μM top concentration dose-response to constrain the top of the non-linear regression curve to generate a full curve that enables estimation of ECₓ values (Table 21).

[5] = target: T3, human CD3 (CD3ε of the TCR/CD3 complex) …; experiment: flow cytometry on T cells of donor D316144, with curve extrapolation
Procedure: as §1

[6] = target: T3, human CD3 (CD3ε of the TCR/CD3 complex) …; experiment: flow cytometry on T cells of donor D327645, with curve extrapolation
Procedure: as §1

[7] = target: T4, BCMW37 (recombinant human BCMA antigen) (human, UniProt Q02223 1-54, limits assumed); experiment: SPR
T4 construct: also called BCMA BCMW37 chain; human BCMA (SPR antigen)
T4 sequence (looked up): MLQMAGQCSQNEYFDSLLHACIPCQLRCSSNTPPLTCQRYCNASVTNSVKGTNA

[8] = target: T5, human BCMA (B cell maturation antigen, TNFRSF17) on cells (human, UniProt Q02223 1-184); experiment: cell binding, H929 and MM.1R cells
T5 construct: whole, on cells; Target on H929 or MM.1R GPRC5D knockout cells, K562 cells expressing human BCMA, HEK293 cells of the cell microarray, and BCMA-only lymphoma lines; also called CD269; surface BCMA
T5 sequence (looked up): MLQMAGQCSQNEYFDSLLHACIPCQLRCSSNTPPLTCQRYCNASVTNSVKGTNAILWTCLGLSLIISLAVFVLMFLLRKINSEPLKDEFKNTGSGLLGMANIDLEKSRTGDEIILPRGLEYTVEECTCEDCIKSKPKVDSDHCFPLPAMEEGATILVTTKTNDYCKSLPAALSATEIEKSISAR

[9] = target: T5, human BCMA (B cell maturation antigen, …); experiment: cell binding, H929 and MM.1R cells; remark: listed apart in the source
[10] = target: T4, BCMW37 (recombinant human BCMA antigen); experiment: SPR; antigen BCMW37; parental BCMA binder as scFv
[11] = target: T5, human BCMA (B cell maturation antigen, …); experiment: cell-based or functional assay
[12] = target: T1, human GPRC5D (G-protein coupled …); experiment: cell-based or functional assay

T1 sequence (Q9NZD1 whole entry): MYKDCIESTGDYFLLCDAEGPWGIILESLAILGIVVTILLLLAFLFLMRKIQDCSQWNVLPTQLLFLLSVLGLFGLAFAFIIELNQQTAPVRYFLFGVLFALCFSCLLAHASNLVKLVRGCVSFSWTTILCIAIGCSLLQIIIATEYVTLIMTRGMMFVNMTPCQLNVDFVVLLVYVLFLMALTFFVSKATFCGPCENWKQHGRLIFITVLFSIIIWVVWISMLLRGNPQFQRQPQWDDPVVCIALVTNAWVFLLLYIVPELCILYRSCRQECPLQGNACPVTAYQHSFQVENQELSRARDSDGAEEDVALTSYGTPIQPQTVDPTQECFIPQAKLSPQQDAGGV
T3 sequence (P07766 23-207, one chain of several): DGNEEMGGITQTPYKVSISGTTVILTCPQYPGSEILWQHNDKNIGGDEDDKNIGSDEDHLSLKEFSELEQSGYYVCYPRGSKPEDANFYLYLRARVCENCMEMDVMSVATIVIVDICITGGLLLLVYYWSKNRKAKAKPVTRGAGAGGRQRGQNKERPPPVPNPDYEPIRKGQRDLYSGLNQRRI
T2 sequence (Q95LI5 22-198): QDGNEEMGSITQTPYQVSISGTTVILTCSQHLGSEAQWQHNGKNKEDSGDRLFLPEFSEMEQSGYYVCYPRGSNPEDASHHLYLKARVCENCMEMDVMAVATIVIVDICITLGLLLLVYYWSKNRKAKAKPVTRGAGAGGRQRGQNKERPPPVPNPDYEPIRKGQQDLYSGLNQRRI

B1: GC5B680 (parental anti-GPRC5D binder, tested as Fab) (Fab, V domains shown)
VH: QVTLKESGPVLVKPTETLTLTCTVSGFSLTNIRMSVSWIRQPPGKALEWLAHIFSNDEKSYSTSLKSRLTISRDTSKSQVVLTLTNVDPVDTATYYCARMRLPYGMDVWGQGTTVTVSS
VL: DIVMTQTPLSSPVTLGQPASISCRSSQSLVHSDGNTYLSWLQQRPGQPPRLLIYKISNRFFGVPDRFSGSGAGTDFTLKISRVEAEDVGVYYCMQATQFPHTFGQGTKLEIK
notes: Tested 'as Fab'; also called GPRC5d lead
In the case of B1, the EC50 [1] is reported as 6 to 24 nM and the EC50 [2] is reported as 6 to 24 nM.

B2: GCDB381 (CD3B376 Fab in bivalent IgG1-AAS antibody) (antibody, V domains shown)
VH: QVQLQQSGPRLVRPSQTLSLTCAISGDSVFNNNAAWSWIRQSPSRGLEWLGRTYYRSKWLYDYAVSVKSRITVNPDTSRNQFTLQLNSVTPEDTALYYCARGYSSSFDYWGQGTLVTVSS
VL: QSALTQPASVSGSPGQSITISCTGTSSNIGTYKFVSWYQQHPDKAPKVLLYEVSKRPSGVSSRFSGSKSGNTASLTISGLQAEDQADYHCVSYAGSGTLLFGGGTKLTVL
For B2, the binding result [3] was “binds”, the “EC50 (read off the curve)” value [4] was about 80 nM and the “EC50 (read off the curve)” value [5] was about 80 nM. For the same binder, the “EC50 (read off the curve)” value [6] was about 70 nM.

B3: BCMB519 (parental anti-BCMA binder, tested as scFv) (scFv, V domains shown)
VH: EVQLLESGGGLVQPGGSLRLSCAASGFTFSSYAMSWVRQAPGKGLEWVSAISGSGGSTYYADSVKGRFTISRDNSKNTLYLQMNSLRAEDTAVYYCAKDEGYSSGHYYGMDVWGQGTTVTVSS
VL: EIVLTQSPGTLSLSPGERATLSCRASQSISSSFLTWYQQKPGQAPRLLIYGASSRATGIPDRFSGGGSGTDFTLTISRLEPEDFAVYYCQHYGSSPMYTFGQGTKLEIK
notes: Tested 'as scFv'; also called BCMA lead
B3 showed a Kd [7] of 0.28 nM, an EC50 [8] of 2.3 to 3.2 nM and an EC50 [9] of 2.3 to 3.2 nM. The Kd [10] was 0.28 nM.

B4: Teclistamab (BCMA×CD3 bispecific antibody) (bispecific antibody)
chain 1: not shown
chain 2: SYVLTQPPSVSVAPGQTARITCGGNNIGSKSVHWYQQPPGQAPVVVVYDDSDRPSGIPERFSGSNSGNTATLTISRVEAGDEAVYYCQVWDSSSDHVVFGGGTKLTVLGQPKAAPSVTLFPPSSEELQANKATLVCLISDFYPGAVTVAWKGDSSPVKAGVETTTPSKQSNNKYAASSYLSLTPEQWKSHRSYSCQVTHEGSTVEKTVAPTECS
chain 3: EVQLVESGGGLVQPGGSLRLSCAASGFTFNTYAMNWVRQAPGKGLEWVARIRSKYNNYATYYAASVKGRFTISRDDSKNSLYLQMNSLKTEDTAVYYCARHGNFGNSYVSWFAYWGQGTLVTVSSASTKGPSVFPLAPCSRSTSESTAALGCLVKDYFPEPVTVSWNSGALTSGVHTFPAVLQSSGLYSLSSVVTVPSSSLGTKTYTCNVDHKPSNTKVDKRVESKYGPPCPPCPAPEAAGGPSVFLFPPKPKDTLMISRTPEVTCVVVDVSQEDPEVQFNWYVDGVEVHNAKTKPREEQFNSTYRVVSVLTVLHQDWLNGKEYKCKVSNKGLPSSIEKTISKAKGQPREPQVYTLPPSQEEMTKNQVSLTCLVKGFYPSDIAVEWESNGQPENNYKTTPPVLDSDGSFLLYSKLTVDKSRWQEGNVFSCSVMHEALHNHYTQKSLSLSLGK
chain 4: QTVVTQEPSLTVSPGGTVTLTCRSSTGAVTTSNYANWVQQKPGQAPRGLIGGTNKRAPGTPARFSGSLLGGKAALTLSGVQPEDEAEYYCALWYSNLWVFGGGTKLTVLGQPKAAPSVTLFPPSSEELQANKATLVCLISDFYPGAVTVAWKADSSPVKAGVETTTPSKQSNNKYAASSYLSLTPEQWKSHRSYSCQVTHEGSTVEKTVAPTECS
For B4, the “CD3 T-cell activation EC50, H929-GPRC5D-KO” value [11] was 0.253 nM, the “CD3 T-cell activation EC50, H929-WT” value [11] was 0.334 nM and the “Cytotoxicity EC50, H929-GPRC5D-KO” value [11] was 0.198 nM. For the same binder, the “Cytotoxicity EC50, H929-WT” value [11] was 0.275 nM.

B5: Talquetamab (GPRC5D×CD3 bispecific antibody) (bispecific antibody)
chain 1: not shown
chain 2: DIQMTQSPSSLSASVGDRVTITCKASQNVATHVGWYQQKPGKAPKRLIYSASYRYSGVPSRFSGSGSGTEFTLTISNLQPEDFATYYCQQYNRYPYTFGQGTKLEIKRTVAAPSVFIFPPSDEQLKSGTASVVCLLNNFYPREAKVQWKVDNALQSGNSQESVTEQDSKDSTYSLSSTLTLSKADYEKHKVYACEVTHQGLSSPVTKSFNRGEC
chain 3: B4 chain 3
chain 4: B4 chain 4
In the case of B5, the “CD3 T-cell activation EC50, H929-BCMA-KO” value [12] is reported as 0.633 nM, the “CD3 T-cell activation EC50, H929-WT” value [12] is reported as 0.233 nM and the “Cytotoxicity EC50, H929-BCMA-KO” value [12] is reported as 0.761 nM. The “Cytotoxicity EC50, H929-WT” value [12] was 0.243 nM.
